The values that follow come from US10398755.

Test [1] deals with Pro-MMP-9 (recombinant) (Mus musculus (Mouse)) (UniProt P41245). The experiment in a line: cell-based or functional assay.
Test [2] has the same target. The experiment in a line: CLU-His pull-down with anti-His tag antibody beads, gelatin zymography, densitometry; reference: MMP-9 and MMP-9-ΔC.

Sequence of mouse CLU with C-terminal (His)6 (CLU-His), recombinant secreted clusterin (Q06890 other isoform, or with tags, fused parts or gaps): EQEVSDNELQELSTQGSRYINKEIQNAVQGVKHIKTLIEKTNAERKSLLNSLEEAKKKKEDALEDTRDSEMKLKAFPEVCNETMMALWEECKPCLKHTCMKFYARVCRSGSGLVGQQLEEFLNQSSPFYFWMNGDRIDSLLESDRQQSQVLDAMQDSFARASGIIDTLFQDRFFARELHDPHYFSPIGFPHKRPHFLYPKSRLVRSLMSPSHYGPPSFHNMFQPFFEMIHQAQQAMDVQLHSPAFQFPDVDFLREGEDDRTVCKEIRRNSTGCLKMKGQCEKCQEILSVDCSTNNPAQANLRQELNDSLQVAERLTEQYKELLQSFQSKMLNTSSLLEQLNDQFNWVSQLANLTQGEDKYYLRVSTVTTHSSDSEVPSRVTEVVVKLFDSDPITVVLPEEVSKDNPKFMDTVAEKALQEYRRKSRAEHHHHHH

As for “mouse CLU with C-terminal (His)6 (CLU-His), recombinant secreted clusterin (from UniProt Q06890 22-448)”, in test [1], the inhibition of MMP-9 activity; FRET peptide substrate, average of three independent experiments, CLU 50 µg/ml worked out at 35% and the inhibition of MMP-9 activity; FRET peptide substrate, pro-MMP-9 with APMA, 3 h, CLU 50 µg/ml (0.63 µM) stood at 28%. The fold stronger affinity for CLU than the other forms of MMP-9 (band densities, Image J) in test [2] is above 10 times.
